In IntAct's records for PubMed 31515488:

B1: Phospholipid scramblase 4 (Homo sapiens), Q9NRQ2 (parent)
chain: MSGVVPTAPEQPAGEMENQTKPPDPRPDAPPEYNSHFLPGPPGTAVPPPTGYPGGLPMGYYSPQQPSTFPLYQPVGGIHPVRYQPGKYPMPNQSVPITWMPGPTPMANCPPGLEYLVQLDNIHVLQHFEPLEMMTCFETNNRYDIKNNSDQMVYIVTEDTDDFTRNAYRTLRPFVLRVTDCMGREIMTMQRPFRCTCCCFCCPSARQELEVQCPPGVTIGFVAEHWNLCRAVYSIQNEKKENVMRVRGPCSTYGCGSDSVFEVKSLDGISNIGSIIRKWNGLLSAMADADHFDIHFPLDLDVKMKAMIFGACFLIDFMYFERSPPQRSR
B2: Golgin-45 (Homo sapiens), Q9H2G9 (parent)
chain: MTTKNLETKVTVTSSPIRGAGDGMETEEPPKSVEVTSGVQSRKHHSLQSPWKKAVPSESPGVLQLGKMLTEKAMEVKAVRILVPKAAITHDIPNKNTKVKSLGHHKGEFLGQSEGVIEPNKELSEVKNVLEKLKNSERRLLQDKEGLSNQLRVQTEVNRELKKLLVASVGDDLQYHFERLAREKNQLILENEALGRNTAQLSEQLERMSIQCDVWRSKFLASRVMADELTNSRAALQRQNRDAHGAIQDLLSEREQFRQEMIATQKLLEELLVSLQWGREQTYSPSVQPHSTAELALTNHKLAKAVNSHLLGNVGINNQKKIPSTVEFCSTPAEKMAETVLRILDPVTCKESSPDNPFFESSPTTLLATKKNIGRFHPYTRYENITFNCCNHCRGELIAL
partner: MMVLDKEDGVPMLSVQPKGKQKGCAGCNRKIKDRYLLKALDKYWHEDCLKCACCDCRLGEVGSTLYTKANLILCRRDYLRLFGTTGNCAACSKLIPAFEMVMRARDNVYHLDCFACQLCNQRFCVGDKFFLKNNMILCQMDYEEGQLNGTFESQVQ
B3: Notch homolog 2 N-terminal-like protein A (Homo sapiens), Q7Z3S9 (parent)
chain: MCVTYHNGTGYCKCPEGFLGEYCQHRDPCEKNRCQNGGTCVAQAMLGKATCRCASGFTGEDCQYSTSHPCFVSRPCLNGGTCHMLSRDTYECTCQVGFTGKECQWTDACLSHPCANGSTCTTVANQFSCKCLTGFTGQKCETDVNECDIPGHCQHGGTCLNLPGSYQCQCLQGFTGQYCDSLYVPCAPSPCVNGGTCRQTGDFTFECNCLPETVRRGTELWERDREVWNGKEHDEN
partner: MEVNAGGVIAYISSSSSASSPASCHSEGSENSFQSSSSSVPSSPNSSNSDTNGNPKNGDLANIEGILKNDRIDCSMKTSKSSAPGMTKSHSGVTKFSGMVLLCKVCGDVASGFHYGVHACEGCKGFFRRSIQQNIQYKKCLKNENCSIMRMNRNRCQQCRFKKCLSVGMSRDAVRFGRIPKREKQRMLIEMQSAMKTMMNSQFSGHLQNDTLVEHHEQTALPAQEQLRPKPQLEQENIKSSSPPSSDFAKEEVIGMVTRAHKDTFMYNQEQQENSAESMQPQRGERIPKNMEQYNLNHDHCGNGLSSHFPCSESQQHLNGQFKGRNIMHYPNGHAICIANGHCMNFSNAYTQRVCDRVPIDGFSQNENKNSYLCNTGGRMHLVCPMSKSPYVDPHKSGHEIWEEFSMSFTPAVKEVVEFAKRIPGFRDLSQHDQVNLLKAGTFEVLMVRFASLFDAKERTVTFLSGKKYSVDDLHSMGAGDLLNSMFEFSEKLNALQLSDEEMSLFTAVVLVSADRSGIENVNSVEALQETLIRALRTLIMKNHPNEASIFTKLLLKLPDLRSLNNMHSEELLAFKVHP
B4: Homeobox protein VENTX (Homo sapiens), O95231 (parent)
chain: MRLSSSPPRGPQQLSSFGSVDWLSQSSCSGPTHTPRPADFSLGSLPGPGQTSGAREPPQAVSIKEAAGSSNLPAPERTMAGLSKEPNTLRAPRVRTAFTMEQVRTLEGVFQHHQYLSPLERKRLAREMQLSEVQIKTWFQNRRMKHKRQMQDPQLHSPFSGSLHAPPAFYSTSSGLANGLQLLCPWAPLSGPQALMLPPGSFWGLCQVAQEALASAGASCCGQPLASHPPTPGRPSLGPALSTGPRGLCAMPQTGDAF
partner: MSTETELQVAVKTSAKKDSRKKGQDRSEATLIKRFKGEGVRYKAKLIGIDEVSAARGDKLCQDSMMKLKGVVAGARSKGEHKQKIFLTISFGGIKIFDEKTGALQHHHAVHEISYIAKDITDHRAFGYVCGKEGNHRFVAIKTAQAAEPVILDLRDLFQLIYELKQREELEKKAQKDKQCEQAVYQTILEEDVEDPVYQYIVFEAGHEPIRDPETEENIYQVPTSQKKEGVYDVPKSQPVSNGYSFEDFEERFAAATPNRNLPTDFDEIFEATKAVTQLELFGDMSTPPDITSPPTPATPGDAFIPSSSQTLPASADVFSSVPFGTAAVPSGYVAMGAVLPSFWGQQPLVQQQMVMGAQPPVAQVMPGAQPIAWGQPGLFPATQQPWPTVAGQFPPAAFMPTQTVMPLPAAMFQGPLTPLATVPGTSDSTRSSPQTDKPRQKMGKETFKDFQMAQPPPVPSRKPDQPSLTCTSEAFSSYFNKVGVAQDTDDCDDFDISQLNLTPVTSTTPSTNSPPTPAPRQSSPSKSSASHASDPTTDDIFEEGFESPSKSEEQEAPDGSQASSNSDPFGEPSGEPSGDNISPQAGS
B5: Tripartite motif-containing protein 59 (Homo sapiens), Q8IWR1 (parent)
chain: MHNFEEELTCPICYSIFEDPRVLPCSHTFCRNCLENILQASGNFYIWRPLRIPLKCPNCRSITEIAPTGIESLPVNFALRAIIEKYQQEDHPDIVTCPEHYRQPLNVYCLLDKKLVCGHCLTIGQHHGHPIDDLQSAYLKEKDTPQKLLEQLTDTHWTDLTHLIEKLKEQKSHSEKMIQGDKEAVLQYFKELNDTLEQKKKSFLTALCDVGNLINQEYTPQIERMKEIREQQLELMALTISLQEESPLKFLEKVDDVRQHVQILKQRPLPEVQPVEIYPRVSKILKEEWSRTEIGQIKNVLIPKMKISPKRMSCSWPGKDEKEVEFLKILNIVVVTLISVILMSILFFNQHIITFLSEITLIWFSEASLSVYQSLSNSLHKVKNILCHIFYLLKEFVWKIVSH
partner: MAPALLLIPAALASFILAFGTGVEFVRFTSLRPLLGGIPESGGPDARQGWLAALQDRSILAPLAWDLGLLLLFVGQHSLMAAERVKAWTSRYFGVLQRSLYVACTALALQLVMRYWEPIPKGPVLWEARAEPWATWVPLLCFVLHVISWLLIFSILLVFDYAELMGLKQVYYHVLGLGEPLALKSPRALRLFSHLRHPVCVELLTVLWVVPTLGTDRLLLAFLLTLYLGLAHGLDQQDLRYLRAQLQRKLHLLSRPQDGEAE

Variants of: B1
Conditions: with pls1_human PLSCR1, O15162
Sequence of pls1_human PLSCR1, O15162 (O15162 whole entry): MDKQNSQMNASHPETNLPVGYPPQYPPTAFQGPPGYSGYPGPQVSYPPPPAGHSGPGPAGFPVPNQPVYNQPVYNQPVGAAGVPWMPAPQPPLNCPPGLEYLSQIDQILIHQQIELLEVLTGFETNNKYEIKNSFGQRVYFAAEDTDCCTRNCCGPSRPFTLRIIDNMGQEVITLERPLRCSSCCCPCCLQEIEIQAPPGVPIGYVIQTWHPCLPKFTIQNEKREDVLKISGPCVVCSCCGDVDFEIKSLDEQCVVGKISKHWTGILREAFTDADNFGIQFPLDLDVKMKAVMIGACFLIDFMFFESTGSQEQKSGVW

Variant	effect of a mutation on the interaction
I155V	with no effect

Variants of: B1
Conditions: with mtus2_human MTUS2, Q5JR59
Sequence of mtus2_human MTUS2, Q5JR59 (Q5JR59 whole entry): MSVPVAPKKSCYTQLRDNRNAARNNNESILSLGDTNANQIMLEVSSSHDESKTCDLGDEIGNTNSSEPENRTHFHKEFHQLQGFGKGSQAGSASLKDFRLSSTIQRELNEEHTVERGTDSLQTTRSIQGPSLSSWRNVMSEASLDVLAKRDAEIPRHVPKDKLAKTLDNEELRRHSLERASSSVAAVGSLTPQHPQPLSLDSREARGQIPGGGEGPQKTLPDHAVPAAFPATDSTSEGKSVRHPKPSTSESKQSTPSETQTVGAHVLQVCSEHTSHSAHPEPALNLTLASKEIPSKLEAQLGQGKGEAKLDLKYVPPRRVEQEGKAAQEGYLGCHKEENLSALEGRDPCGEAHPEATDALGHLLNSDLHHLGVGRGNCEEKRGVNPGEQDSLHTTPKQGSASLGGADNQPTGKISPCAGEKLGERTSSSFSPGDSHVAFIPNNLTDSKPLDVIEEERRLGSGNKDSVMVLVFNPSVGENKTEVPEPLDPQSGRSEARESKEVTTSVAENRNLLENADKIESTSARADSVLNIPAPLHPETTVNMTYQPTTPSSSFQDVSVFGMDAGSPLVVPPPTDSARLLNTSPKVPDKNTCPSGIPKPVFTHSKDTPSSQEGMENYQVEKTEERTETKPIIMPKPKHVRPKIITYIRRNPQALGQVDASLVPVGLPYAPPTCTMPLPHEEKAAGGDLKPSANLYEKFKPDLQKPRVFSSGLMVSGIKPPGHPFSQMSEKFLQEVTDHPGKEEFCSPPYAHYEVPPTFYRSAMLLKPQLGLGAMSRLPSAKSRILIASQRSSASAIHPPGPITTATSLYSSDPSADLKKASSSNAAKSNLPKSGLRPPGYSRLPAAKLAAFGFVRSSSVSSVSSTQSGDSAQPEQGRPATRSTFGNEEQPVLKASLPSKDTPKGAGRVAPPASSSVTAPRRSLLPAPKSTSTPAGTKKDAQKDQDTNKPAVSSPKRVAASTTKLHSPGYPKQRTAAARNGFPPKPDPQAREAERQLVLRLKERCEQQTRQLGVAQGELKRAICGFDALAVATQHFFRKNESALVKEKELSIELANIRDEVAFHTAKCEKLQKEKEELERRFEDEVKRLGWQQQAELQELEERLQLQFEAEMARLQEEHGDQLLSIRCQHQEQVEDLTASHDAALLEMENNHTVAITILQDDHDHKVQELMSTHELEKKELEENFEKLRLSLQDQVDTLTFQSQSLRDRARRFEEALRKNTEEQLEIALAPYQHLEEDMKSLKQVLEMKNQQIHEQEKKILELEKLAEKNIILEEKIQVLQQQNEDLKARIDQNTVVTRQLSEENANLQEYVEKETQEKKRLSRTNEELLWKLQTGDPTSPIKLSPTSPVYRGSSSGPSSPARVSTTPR

Variant	effect of a mutation on the interaction
I155V	with no effect

Variants of: B1
Conditions: with nt2na_human NOTCH2NLA

Variant	effect of a mutation on the interaction
I155V	with no effect

Variants of: B2
Conditions: with rbtn1_human LMO1, P25800

Variant	effect of a mutation on the interaction
Q40R	with no effect
H45R	with no effect

Variants of: B3
Conditions: with nr1d2_human NR1D2, Q14995

Variant	effect of a mutation on the interaction
R74Q	with no effect
A115T	with no effect

Variants of: B4
Conditions: with dab1_human DAB1, O75553

Variant	effect of a mutation on the interaction
L42P	with no effect
A226E	disrupting interaction strength
M251V	with no effect

Variants of: B5
Conditions: with nrm_human NRM

Variant	effect of a mutation on the interaction
R258C	with no effect
